According to patent US20170260534A1 (ANAEROPHARMA SCIENCE, published 2017):
Numbering of substitutions follows the chain as printed. In names and notes the source's numbering stands. Blank lines part the entries; values can stand above or below the binder they belong to.

Columns and labels:
[1] = molecular target: T1, Recombinant Human CTLA-4-Fc Chimera (BioLegend) (human, UniProt P16410 36-161, limits assumed); experiment: SPR (Biacore), Fc-fused hCTLA-4 captured by anti-human IgG (Fc), scFv as analyte, single cycle kinetics
T1 construct: Bought reagent; also called hCTLA-4; hCTLA-4 immobilized; not shown: human IgG1 Fc
T1 sequence (looked up): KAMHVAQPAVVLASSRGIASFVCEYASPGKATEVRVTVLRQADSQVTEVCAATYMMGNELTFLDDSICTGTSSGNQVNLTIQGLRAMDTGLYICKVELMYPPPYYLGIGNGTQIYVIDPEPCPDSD
Experimental: The binding kinetic parameter of each hCTLA-4scFv01-FLAG purified to hCTLA-4 (fusion protein with human IgG1Fc) was measured by surface plasmon resonance using Biacore system (manufactured by GE Healthcare). To a substrate having a carboxyl methyl dextran-coated gold membrane, a mouse anti-human IgG (Fc) monoclonal antibody (manufactured by GE Healthcare) was bound in accordance with amine coupling, and Fc-fused recombinant hCTLA-4 (Biolegend) was captured as a ligand. As an analyte, scFv purified was used. Samples of scFv having a concentration of 0.7404, 2.2222, 6.6667, 20 and 60 nM were prepared and sequentially subjected to binding in order of increasing concentration in accordance with single cycle kinetics. Data obtained were analyzed by BIA evaluation software (manufactured by GE Healthcare).
The binding kinetic parameter to hCTLA-4 (fusion protein with human IgG1Fc) was measured by surface plasmon resonance using Biacore system. Thereafter, analysis was carried out in the same manner as in Example 29.

[2] = molecular target: T1, Recombinant Human CTLA-4-Fc Chimera …; experiment: ELISA, antigen-Fc immobilized, scFv at 100 ng/mL
Experimental: (§1) After the liquid was removed, 1×PBS (350 μL) for each was dispensed and the liquid was removed. This operation was repeated three times for washing. To each of the plates, 1% BSA solution (350 μL) was dispensed at room temperature and incubated for 2 hours for blocking. After the liquid was removed, 1×PBS (350 μL) for each was dispensed and the liquid was removed. This operation was repeated three times for washing.
(§2) To blank wells, the signal enhancing reagent alone was dispensed in an amount of 100 μL. […] After the liquid was removed, 1×PBS (350 μL for each) was dispensed and the liquid was removed. This operation was repeated three times for washing.
(§3) The plates were shielded from light and incubated at room temperature for 20 minutes. […] Absorbance was measured at 450 nm and 570 nm (reference wavelength).

[3] = molecular target: T2, mPD-1 (Fc Chimera, R&D Systems) (mouse, UniProt Q02242 25-167); experiment: ELISA, antigen-Fc immobilized, scFv at 100 ng/mL
T2 construct: Species read from the label mPD-1 only; also called mPD-1 immobilized; Fc part of the bought chimera not given
T2 sequence (looked up): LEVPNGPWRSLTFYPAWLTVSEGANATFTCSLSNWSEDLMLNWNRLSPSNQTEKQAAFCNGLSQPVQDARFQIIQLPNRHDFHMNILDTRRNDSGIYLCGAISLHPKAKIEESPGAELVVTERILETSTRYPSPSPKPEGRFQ
Experimental: as §1, §2, §3

[4] = molecular target: T1, Recombinant Human CTLA-4-Fc Chimera …; experiment: ELISA, antigen-Fc immobilized, scFv at 1 ng/mL
Experimental: as §1, §2, §3

[5] = molecular target: T2, mPD-1 (Fc Chimera, R&D Systems); experiment: ELISA, antigen-Fc immobilized, scFv at 1 ng/mL
Experimental: as §1, §2, §3

[6] = molecular target: T1, Recombinant Human CTLA-4-Fc Chimera …; experiment: ELISA, antigen-Fc immobilized, scFv at 1000 ng/mL
Experimental: as §1, §2, §3

[7] = molecular target: T2, mPD-1 (Fc Chimera, R&D Systems); experiment: ELISA, antigen-Fc immobilized, scFv at 1000 ng/mL
Experimental: as §1, §2, §3

[8] = molecular target: T1, Recombinant Human CTLA-4-Fc Chimera …; experiment: ELISA, antigen-Fc immobilized, scFv at 10 ng/mL
Experimental: as §1, §2, §3

[9] = molecular target: T2, mPD-1 (Fc Chimera, R&D Systems); experiment: ELISA, antigen-Fc immobilized, scFv at 10 ng/mL
Experimental: as §1, §2, §3

[10] = molecular target: T3, human PD-1 overexpressed on HEK293T cells (human, UniProt Q15116 25-288); experiment: flow cytometry on HEK293T cells overexpressing hPD-1; anti-hCTLA-4scFv01-FLAG purified from PC4, used as in Example 24 (biotinylated Protein L and Brilliant Violet 421 Streptavidin) [d]
T3 construct: whole, on cells; also called hPD-1 expressing cells; human PD-1 overexpressing cell
T3 sequence (Q15116 25-288): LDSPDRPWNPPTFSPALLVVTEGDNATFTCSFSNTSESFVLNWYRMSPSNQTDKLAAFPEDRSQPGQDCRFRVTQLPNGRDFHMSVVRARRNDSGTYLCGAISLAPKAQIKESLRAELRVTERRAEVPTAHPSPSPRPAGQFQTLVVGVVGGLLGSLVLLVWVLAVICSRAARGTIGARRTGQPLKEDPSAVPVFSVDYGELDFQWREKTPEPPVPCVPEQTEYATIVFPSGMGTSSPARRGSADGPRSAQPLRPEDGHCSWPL

OD value [2]: -0.018 OD
OD value [3]: -0.049 OD
OD value [4]: -0.062 OD
OD value [5]: -0.059 OD
OD value [6]: 0.341 OD
OD value [7]: 0.107 OD
OD value [8]: -0.055 OD
OD value [9]: -0.057 OD
B2: anti-hPD-1scFv03 purified from the culture supernatant of co-expression strain PC1 (scFv)
scFv: DSAQTSAVVSSRSFPKASSVQVQLVESGGGVVQPGRSLRLDCKASGITFSNSGMHWVRQAPGKGLEWVAVIWYDGSKRYYADSVKGRFTISRDNSKNTLFLQMNSLRAEDTAVYYCATNDDYWGQGTLVTVSSGGGGSGGGGSGGGGSEIVLTQSPATLSLSPGERATLSCRASQSVSSYLAWYQQKPGQAPRLLIYDASNRATGIPARFSGSGSGTDFTLTISSLEPEDFAVYYCQQSSNWPRTFGQGTKVEIKHHHHHH
notes: Secreted from the cassette SP7L20-anti-hPD-1scFv03-His tag; also called anti-PD-1scFv03

binding result [10]: no binding (tested: 1 ug/mL)
Kd [1]: 1.08 nM
koff [1]: 0.000996 s⁻¹
kon [1]: 918000 M⁻¹ s⁻¹
B3: anti-hCTLA-4scFv01-FLAG purified from single-expression strain C1F or from co-expression strain PC4 (scFv)
scFv: ATLTPQVQLVESGGGVVQPGRSLRLSCAASGFTFSSYGMHWVRQAPGKGLEWVAVIWYDGSNKYYADSVKGRFTISRDNSKNTLYLQMNSLRAEDTAVYYCARDPRGATLYYYYYGMDVWGQGTTVTVSSGGGGSGGGGSGGGGSDIQMTQSPSSLSASVGDRVTITCRASQSINSYLDWYQQKPGKAPKLLIYAASSLQSGVPSRFSGSGSGTDFTLTISSLQPEDFATYYCQQYYSTPFTFGPGTKVEIKDYKDDDDK
notes: Plasmid pP30SP50L5-hCTLA-4scFv01-FLAG (pC1F) and pPC4; PC4 and PC6 secrete the same scFv as C1F; Signal peptide SP50 left out; also called scFv derived from C1F strain; hCTLA-4scFv01-FLAG purified from PC4 strain

Kd [1]: 1.29 nM
koff [1]: 0.000996 s⁻¹
kon [1]: 773000 M⁻¹ s⁻¹
B5: anti-hCTLA-4scFv01 (not tagged) of single-expression strain C3TLB (scFv)
scFv: DQVQLVESGGGVVQPGRSLRLSCAASGFTFSSYGMHWVRQAPGKGLEWVAVIWYDGSNKYYADSVKGRFTISRDNSKNTLYLQMNSLRAEDTAVYYCARDPRGATLYYYYYGMDVWGQGTTVTVSSGGGGSGGGGSGGGGSDIQMTQSPSSLSASVGDRVTITCRASQSINSYLDWYQQKPGKAPKLLIYAASSLQSGVPSRFSGSGSGTDFTLTISSLQPEDFATYYCQQYYSTPFTFGPGTKVEIK
notes: Plasmid pC3TLB; PC3TL, PC5TL and PC8TL secrete the same scFv; Signal peptide SP68 left out; also called scFv derived from C3TLB strain; anti-hCTLA-4scFv01 in culture supernatants of PC3TL, PC5TL and PC8TL

Kd [1]: 2.97 nM
koff [1]: 0.00103 s⁻¹
kon [1]: 347000 M⁻¹ s⁻¹
B7: anti-hCTLA-4scFv01-FLAG purified from single-expression strain C3F (scFv)
scFv: DQVQLVESGGGVVQPGRSLRLSCAASGFTFSSYGMHWVRQAPGKGLEWVAVIWYDGSNKYYADSVKGRFTISRDNSKNTLYLQMNSLRAEDTAVYYCARDPRGATLYYYYYGMDVWGQGTTVTVSSGGGGSGGGGSGGGGSDIQMTQSPSSLSASVGDRVTITCRASQSINSYLDWYQQKPGKAPKLLIYAASSLQSGVPSRFSGSGSGTDFTLTISSLQPEDFATYYCQQYYSTPFTFGPGTKVEIKDYKDDDDK
notes: Plasmid pP30SP68L1-hCTLA-4scFv01-FLAG (pC3F); PC3, PC5 and PC8 secrete the same scFv; also called scFv derived from C3F strain

Continued, binder first:

B1: anti-hCTLA-4scFv01 (not tagged) of single-expression strain C1TLB (scFv)
scFv: ATLTPQVQLVESGGGVVQPGRSLRLSCAASGFTFSSYGMHWVRQAPGKGLEWVAVIWYDGSNKYYADSVKGRFTISRDNSKNTLYLQMNSLRAEDTAVYYCARDPRGATLYYYYYGMDVWGQGTTVTVSSGGGGSGGGGSGGGGSDIQMTQSPSSLSASVGDRVTITCRASQSINSYLDWYQQKPGKAPKLLIYAASSLQSGVPSRFSGSGSGTDFTLTISSLQPEDFATYYCQQYYSTPFTFGPGTKVEIK
notes: Plasmid pC1TLB; PC4TL and PC6TL secrete the same scFv; Signal peptide SP50 left out; also called scFv derived from C1TLB strain; anti-hCTLA-4scFv01 in culture supernatants of PC4TL and PC6TL
Kd [1]: 1.48 nM
koff [1]: 0.00098 s⁻¹
kon [1]: 661000 M⁻¹ s⁻¹

B4: anti-hCTLA-4scFv01 (not tagged) of single-expression strain C2TLB (scFv)
scFv: B5 scFv with D1A
notes: Plasmid pC2TLB; PC2TL and PC7TL secrete the same scFv; Signal peptide SP67 left out; also called scFv derived from C2TLB strain; anti-hCTLA-4scFv01 in culture supernatants of PC2TL and PC7TL
Kd [1]: 0.98 nM
koff [1]: 0.000961 s⁻¹
kon [1]: 981000 M⁻¹ s⁻¹

B6: anti-hCTLA-4scFv01-FLAG purified from single-expression strain C2F (scFv)
scFv: B7 scFv with D1A
notes: Plasmid pP30SP67L1-hCTLA-4scFv01-FLAG (pC2F); PC2 and PC7 secrete the same scFv; Signal peptide SP67 left out; also called scFv derived from C2F strain
Kd [1]: 2.28 nM
koff [1]: 0.00103 s⁻¹
kon [1]: 452000 M⁻¹ s⁻¹
